“And” between values parts separate entries of the source, which are not always exact repeats. Identical values can stand only once. Like-named read-outs stand apart in the source and are kept apart here.
Key:
[1] = biological target: T1, HLA‐DR1 (HLA‐DRA1*01:01/HLA‐DRB*01:01) complexed with the HA_(306‐318) peptide, refolded from E. coli (human | ); experiment: SPR
[2] = biological target: T1, HLA‐DR1 (HLA‐DRA1*01:01/HLA‐DRB*01:01) …; experiment: SPR; remark: listed apart in the source

B1: LAG‐3:Fc fusion protein (four extracellular domains of LAG‐3 and the Fc domain of IgG) (Fc fusion)
chain: LQPGAEVPVVWAQEGAPAQLPCSPTIPLQDLSLLRRAGVTWQHQPDSGPPAAAPGHPLAPGPHPAAPSSWGPRPRRYTVLSVGPGGLRSGRLPLQPRVQLDERGRQRGDFSLWLRPARRADAGEYRAAVHLRDRALSCRLRLRLGQASMTASPPGSLRASDWVILNCSFSRPDRPASVHWFRNRGQGRVPVRESPHHHLAESFLFLPQVSPMDSGPWGCILTYRDGFNVSIMYNLTVLGLEPPTPLTVYAGAGSRVGLPCRLPAGVGTRSFLTAKWTPPGGGPDLLVTGDNGDFTLRLEDVSQAQAGTYTCHIHLQEQQLNATVTLAIITVTPKSFGSPGSLGKLLCEVTPVSGQERFVWSSLDTPSQRSFSGPWLEAQEAQLLSQPWQCQLYQGERLLGAAVYFTELSSPGAQRSGRAPGALPAGHL
B1 was tested, and the Kd [1] was 7300 nM and the Kd [2] was 3000 nM and 1000 nM.

Source: publication PMC8101287 (2020)
